Consider two proteins from patent US20160230171.

One data set addresses T1, plakoglobin.
T1 chain: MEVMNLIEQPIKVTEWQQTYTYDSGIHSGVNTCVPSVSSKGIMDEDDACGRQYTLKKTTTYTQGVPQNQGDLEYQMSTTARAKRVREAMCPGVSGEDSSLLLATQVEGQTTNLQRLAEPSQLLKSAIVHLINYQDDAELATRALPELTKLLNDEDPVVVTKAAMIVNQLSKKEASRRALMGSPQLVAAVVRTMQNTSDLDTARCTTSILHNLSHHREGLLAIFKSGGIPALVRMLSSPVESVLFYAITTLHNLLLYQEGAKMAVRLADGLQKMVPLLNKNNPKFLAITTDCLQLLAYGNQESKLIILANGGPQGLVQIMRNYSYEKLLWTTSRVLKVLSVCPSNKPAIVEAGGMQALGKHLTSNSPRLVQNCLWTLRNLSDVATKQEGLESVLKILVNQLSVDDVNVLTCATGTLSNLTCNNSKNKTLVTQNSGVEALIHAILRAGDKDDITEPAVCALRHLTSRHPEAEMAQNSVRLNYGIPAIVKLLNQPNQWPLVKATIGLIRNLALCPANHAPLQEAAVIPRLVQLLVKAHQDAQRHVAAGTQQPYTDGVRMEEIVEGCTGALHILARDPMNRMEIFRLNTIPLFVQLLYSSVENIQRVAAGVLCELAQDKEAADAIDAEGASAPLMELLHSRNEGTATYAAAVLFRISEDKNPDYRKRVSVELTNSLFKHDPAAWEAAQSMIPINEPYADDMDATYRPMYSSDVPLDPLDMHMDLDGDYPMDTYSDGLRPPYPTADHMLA

Another data set deals with T2, 6His-plakoglobin.
T2 chain: T1 chain

B1: GST-Trim32 (protein)
chain: MAAAAAASHLNLDALREVLECPICMESFTEEQLRPKLLHCGHTICRQCLEKLLASSINGVRCPFCSKITRITSLTQLTDNLTVLKIIDTAGLSEAVGLLMCRGCGRRLPRQFCRSCGVVLCEPCREADHQPPGHCTLPVKEAAEERRRDFGEKLTRLRELTGELQRRKAALEGVSRDLQARYKAVLQEYGHEERRIQEELARSRKFFTGSLAEVEKSNSQVVEEQSYLLNIAEVQAVSRCDYFLAKIKQADVALLEETADEEEPELTASLPRELTLQDVELLKVGHVGPLQIGQAVKKPRTVNMEDSWAGEEGAASSASASVTFREMDMSPEEVAPSPRASPAKQRSSEAASGIQQCLFLKKMGAKGSTPGMFNLPVSLYVTSQSEVLVADRGNYRIQVFNRKGFLKEIRRSPSGIDSFVLSFLGADLPNLTPLSVAMNCHGLIGVTDSYDNSLKVYTMDGHCVACHRSQLSKPWGITALPSGQFVVTDVEGGKLWCFTVDRGAGVVKYSCLCSAVRPKFVTCDAEGTVYFTQGLGLNVENRQNEHHLEGGFSIGSVGPDGQLGRQISHFFSENEDFRCIAGMCVDARGDLIVADSSRKEILHFPKGGGYSVLIREGLTCPVGIALTPKGQLLVLDCWDHCVKIYSYHLRRYSTP
Regarding B1, the “polyubiquitination in vitro (E1, UbcH5, ATP, 6His-ubiquitin; nickel column; mass spectrometry)” value with plakoglobin is “plakoglobin was polyubiquitinated by Trim32 (as documented by the presence of 13 unique peptides)”.

B2: recombinant Trim32 (protein)
chain: B1 chain
For B2, the “polyubiquitination in vitro (Trim32, UbcH5, ubiquitin, ATP; Ni column; immunoblot with anti plakoglobin)” value with 6His-plakoglobin is “recombinant Trim32 also polyubiquitinated 6His-plakoglobin, which was expressed and purified from normal muscle”.
